Data reported in paper PMC3240954 (Scientific Reports, 2011).

B1: -22/A (dsDNA)
DNA 1: CGTCATTTGGAGGTTTTGGGACAACACGCCCCTAAACTCGCCCT
DNA 2: AGGGCGAGTTTAGGGGCGTGTTGTCCCAAAACCTCCAAATGACG
B2: His-tagged WhiG (H6-WhiG) (natural protein, UniProt P17211 1-280, looked up)
chain: MPQHTSGSDRAAIPPAARDGGSVRPPAPSTLDELWRSYKTTGDERLREQLILHYSPLVKYVAGRVSVGLPPNVEQADFVSSGVFGLIDAIEKFDVDREIKFETYAITRIRGAMIDELRALDWIPRSVRQKARNVERAYATLEARLRRTPSESEVAVEMGIAVEDLHAVFSQLSLANVVALEELLHAGGEGGGRLSLMDTLEDTAADNPVEVAEDRELRRLLARAINTLPEREKTVVTLYYYEGLTLAEIGNVLGVTESRVSQIHTKSVLQLRAKLAGFGR

Tests used:
[1] = target: H6-WhiA full-length (Streptomyces coelicolor, UniProt Q9Z515 1-328); assay: competition
[2] = target: WhiA (S. coelicolor), full-length, untagged (S. coelicolor, UniProt Q9Z515 1-328); assay: pull-down
Chain of WhiA (S. coelicolor), full-length, untagged (Q9Z515 whole entry): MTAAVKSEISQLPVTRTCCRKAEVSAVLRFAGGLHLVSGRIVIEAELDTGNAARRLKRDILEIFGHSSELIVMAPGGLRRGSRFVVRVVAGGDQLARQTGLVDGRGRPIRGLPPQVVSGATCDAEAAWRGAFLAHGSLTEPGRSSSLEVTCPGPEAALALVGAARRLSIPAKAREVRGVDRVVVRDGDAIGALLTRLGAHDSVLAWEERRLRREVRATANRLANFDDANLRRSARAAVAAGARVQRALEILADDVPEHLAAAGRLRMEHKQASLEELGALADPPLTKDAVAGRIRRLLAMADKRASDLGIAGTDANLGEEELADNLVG

Chain of H6-WhiA full-length (Q9Z515 whole entry): as above

| Binder | binding result [1] | binding result [2] |
| --- | --- | --- |
| B1 | binds | – |
| B2 | – | binds |
